For three molecules, binding result and binding signal results are on record in publication PMC6265484, “Homodimerization regulates an endothelial specific signature of the SOX18 transcription factor”.

Series [1] deals with T1, SOX18 full length (mouse, UniProt P43680 1-377). The series can be described thus: fluorescence polarization; 2 mM Mg2+; maximum binding (highest mP); FP: 30 mM HEPES pH 7.5, 100 mM KCl, 40 mM NaCl, 10 mM ammonium acetate, 10 mM guanidinium HCl, 2 mM MgCl2, 0.5 mM EDTA, 0.01% NP-40, room temp, 5 nM DNA, 5-150. The note with it: protein: recombinant; tags: N-terminal HIS-GST; chain copies: 2; label: 5'-fluorescein; blunt. In general terms: Polarisation of emitted light reports the rotation of a fluorescent probe.

A further series addresses SOX9-HMG (UniProt Q04887 105-173). The series can be described thus: EMSA; 50 uM Zn2+; two HMG bind; FP: 30 mM HEPES pH 7.5, 100 mM KCl, 40 mM NaCl, 10 mM ammonium acetate, 10 mM guanidinium HCl, 2 mM MgCl2, 0.5 mM EDTA, 0.01% NP-40, room temp, 5 nM DNA, 5-150. The note with it: protein: recombinant; chain copies: 2; label: 5'-Cy5; blunt. (In general: A gel shift assay detects complexes by their altered migration in electrophoresis.)

The target in the next series is SOX18-HMG (Sox18_79) (mouse, UniProt P43680 77-155). The series can be described thus: EMSA; 15 nM protein, 1 nM DNA, 50 uM Zn2+; two HMG bind; FP: 30 mM HEPES pH 7.5, 100 mM KCl, 40 mM NaCl, 10 mM ammonium acetate, 10 mM guanidinium HCl, 2 mM MgCl2, 0.5 mM EDTA, 0.01% NP-40, room temp, 5 nM DNA, 5-150. As to conditions: protein: recombinant; tags: pETG20A or pHisMBP vector; chain copies: 2; label: 5'-Cy5; blunt.

The target in series [2] is T1, SOX18 full length. As to the kind of experiment: fluorescence polarization; 2 mM Mg2+; FP: 30 mM HEPES pH 7.5, 100 mM KCl, 40 mM NaCl, 10 mM ammonium acetate, 10 mM guanidinium HCl, 2 mM MgCl2, 0.5 mM EDTA, 0.01% NP-40, room temp, 5 nM DNA, 5-150. The note with it: protein: recombinant; tags: N-terminal HIS-GST; chain copies: 2; label: 5'-fluorescein; blunt.

T1 sequence (P43680 whole entry): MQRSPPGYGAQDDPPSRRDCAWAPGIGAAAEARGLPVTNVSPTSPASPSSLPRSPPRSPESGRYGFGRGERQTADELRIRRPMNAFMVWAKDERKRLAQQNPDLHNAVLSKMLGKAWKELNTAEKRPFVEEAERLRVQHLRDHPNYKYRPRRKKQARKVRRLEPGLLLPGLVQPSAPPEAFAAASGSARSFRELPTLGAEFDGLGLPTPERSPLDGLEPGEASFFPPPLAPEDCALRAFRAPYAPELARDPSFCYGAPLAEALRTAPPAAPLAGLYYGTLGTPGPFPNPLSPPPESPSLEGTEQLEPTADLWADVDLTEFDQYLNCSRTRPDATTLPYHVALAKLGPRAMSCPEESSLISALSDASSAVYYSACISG
SOX9-HMG, sequence (Q04887 105-173): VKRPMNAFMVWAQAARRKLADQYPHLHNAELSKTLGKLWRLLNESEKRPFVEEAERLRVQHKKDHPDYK
SOX18-HMG (Sox18_79), sequence (P43680 77-155): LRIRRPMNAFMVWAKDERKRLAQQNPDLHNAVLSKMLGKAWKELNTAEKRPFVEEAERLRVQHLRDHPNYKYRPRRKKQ

B1: IR5 (FP) (dsDNA)
DNA 1: CGCCAGTAGGAACAATGCGGCATTGTTTTCCGGGGGC
DNA 2: GCCCCCGGAAAACAATGCCGCATTGTTCCTACTGGCG
For the molecule B1, the binding result with SOX18 full length [1] is recorded as “binds”.

B2: IR5 (EMSA) (dsDNA)
DNA 1: CGCCAGTAGGAACAATGCGGCATTGTTTTCCGGGGGC
DNA 2: GCCCCCGGAAAACAATGCCGCATTGTTCCTACTGGCG
Regarding B2, the binding result with SOX9-HMG and in the series with SOX18-HMG (Sox18_79) was “binds” throughout.

B3: IR1 (FP) (dsDNA)
DNA 1: CGCCAGTAGGGCAACAATGATTGTTGCTTCCGGGGGC
DNA 2: GCCCCCGGAAGCAACAATCATTGTTGCCCTACTGGCG
As for B3, the binding signal with SOX18 full length [2] is ~0.5 occupancy relative to IR5.
